Key:
RbAB [1] = biological target: T1, RbAB (Homo sapiens, UniProt P06400); assay: Isothermal titration calorimetry of E2F constructs binding to RbAB; conditions: ITC, binding to pRbAB
T1 construct: residues 372 to 589 of the A domain and 636 to 787 of the B domain; GST (with Prescission protease site) (N, cleaved yes); engineered thrombin site (LVPRGS) at the A-domain end of the A-B linker (C, cleaved yes); engineered thrombin site (LVPRGS) at the B-domain end of the A-B linker (N, cleaved yes); made in house; host or cells: E. coli
T1 sequence (P06400 372-589): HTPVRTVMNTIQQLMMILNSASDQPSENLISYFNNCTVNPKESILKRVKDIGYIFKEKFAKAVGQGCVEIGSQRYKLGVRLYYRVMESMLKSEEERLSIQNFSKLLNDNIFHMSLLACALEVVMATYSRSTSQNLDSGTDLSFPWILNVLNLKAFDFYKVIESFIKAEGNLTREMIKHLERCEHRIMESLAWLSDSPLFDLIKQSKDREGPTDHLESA
T1 sequence (P06400 636-787): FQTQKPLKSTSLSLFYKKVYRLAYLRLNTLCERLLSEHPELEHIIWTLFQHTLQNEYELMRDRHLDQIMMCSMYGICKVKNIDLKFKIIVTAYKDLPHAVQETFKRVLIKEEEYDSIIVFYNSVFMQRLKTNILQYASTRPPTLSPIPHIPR
Experimental: The panel represents the experiment where E2F(243-437) is titrated into RbAB.
(B) Summary of dissociation constants obtained by ITC measurements. The quoted errors are those produced by fitting the data to a two-state model. For the interaction of E2F(243-437) to RbAB and RbABC the affinities are too high to measure reliably and we have therefore quoted the upper limits of the dissociation constants.
Binding of the various E2F constructs to RbAB and RbABC was measured by isothermal titration calorimetry using a MicroCal Omega VP-ITC machine (MicroCal Inc., Northampton, USA). The E2F constructs at a concentration between 100-150 μM were titrated into 12-15 μM Rb at a temperature of 22° C. Proteins were dialysed against 50 mM Tris pH 7.6, 100 mM NaCl and 1 mM TCEP. After subtraction of the dilution heats, calorimetric data was analysed using the evaluation software MicroCal Origin v5.0 (MicroCal Software Inc.). For all of the titrations, the stoichiometry of ligand binding to Rb was very close to 1.0. For E2F(243-437) binding to Rb, the binding affinity and the heat change associated with binding were such that we could only establish that binding was tighter than 10 nM.

RbAB [2] = biological target: T2, RbAB (Homo sapiens, UniProt P06400); assay: RbAB
T2 construct: residues 372 to 589 of the A domain and 636 to 787 of the B domain; GST (with Prescission protease site) (N, cleaved yes); engineered thrombin site (LVPRGS) at the A-domain end of the A-B linker (C, cleaved yes); engineered thrombin site (LVPRGS) at the B-domain end of the A-B linker (N, cleaved yes); made in house; host or cells: E. coli
T2 sequence (P06400 whole entry, looked up): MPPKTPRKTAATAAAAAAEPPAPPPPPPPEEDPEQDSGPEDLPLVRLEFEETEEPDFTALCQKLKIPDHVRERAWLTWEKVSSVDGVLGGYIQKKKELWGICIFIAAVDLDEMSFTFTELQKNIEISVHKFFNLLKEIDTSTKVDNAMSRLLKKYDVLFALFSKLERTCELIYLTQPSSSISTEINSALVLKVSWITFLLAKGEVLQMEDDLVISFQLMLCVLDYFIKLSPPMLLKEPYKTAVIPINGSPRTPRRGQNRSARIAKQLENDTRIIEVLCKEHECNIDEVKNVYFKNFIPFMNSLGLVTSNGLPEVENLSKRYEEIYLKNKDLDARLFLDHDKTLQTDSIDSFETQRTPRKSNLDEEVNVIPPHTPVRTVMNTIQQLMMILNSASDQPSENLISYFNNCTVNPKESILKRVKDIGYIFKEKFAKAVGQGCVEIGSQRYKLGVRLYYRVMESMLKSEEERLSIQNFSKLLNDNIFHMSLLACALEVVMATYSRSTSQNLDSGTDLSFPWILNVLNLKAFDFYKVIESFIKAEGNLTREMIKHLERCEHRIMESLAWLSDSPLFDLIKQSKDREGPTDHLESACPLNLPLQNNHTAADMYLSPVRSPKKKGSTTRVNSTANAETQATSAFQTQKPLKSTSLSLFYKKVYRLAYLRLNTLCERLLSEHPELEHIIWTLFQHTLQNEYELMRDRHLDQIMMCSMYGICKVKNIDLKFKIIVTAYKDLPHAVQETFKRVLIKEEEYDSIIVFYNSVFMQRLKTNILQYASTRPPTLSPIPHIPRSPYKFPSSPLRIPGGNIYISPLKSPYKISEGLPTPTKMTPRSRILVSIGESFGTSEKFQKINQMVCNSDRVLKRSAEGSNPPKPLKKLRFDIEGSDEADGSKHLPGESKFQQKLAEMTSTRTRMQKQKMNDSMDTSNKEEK
Source text: Table printed on a drawing sheet, FIG. 2B
The patent's description of the figure: FIG. 2.
First copying reader's note: Binding constants of E2F fragments to the Rb constructs RbAB and RbABC; the error is printed in the same cell as the value.
Where the first naming reader finds the target: head: RbAB

- binds stronger than either of the two shorter E2F fragments (RbAB [1]): at least 16 fold
- Kd (RbAB [2]): < 10 nM
B1: E2F(243-437): Recombinant human E2F1(243-437) expressed in E. coli (protein, UniProt Q01094 243-437, looked up, fragment)
chain: LAYVTCQDLRSIADPAEQMVMVIKAPPETQLQAVDSSENFQISLKSKQGPIDVFLCPEETVGGISPGKTPSQEVTSEEENRATDSATIVSPPPSSPPSSLTTDPSQSLLSLEQEPLLSRMGSLRAPVDEDRLSPLVAADSLLEHVREDFSGLLPEEFISLSPPHEALDYHFGLEEGEGIRDLFDCDFGDLTPLDF
